Key:
Assay in all cases: cryo-EM structure
[1] = target: T1, Mycobacterium tuberculosis RNA polymerase β subunit (M. tuberculosis, UniProt P9WGY9); conditions: both partners purified
T1 sequence: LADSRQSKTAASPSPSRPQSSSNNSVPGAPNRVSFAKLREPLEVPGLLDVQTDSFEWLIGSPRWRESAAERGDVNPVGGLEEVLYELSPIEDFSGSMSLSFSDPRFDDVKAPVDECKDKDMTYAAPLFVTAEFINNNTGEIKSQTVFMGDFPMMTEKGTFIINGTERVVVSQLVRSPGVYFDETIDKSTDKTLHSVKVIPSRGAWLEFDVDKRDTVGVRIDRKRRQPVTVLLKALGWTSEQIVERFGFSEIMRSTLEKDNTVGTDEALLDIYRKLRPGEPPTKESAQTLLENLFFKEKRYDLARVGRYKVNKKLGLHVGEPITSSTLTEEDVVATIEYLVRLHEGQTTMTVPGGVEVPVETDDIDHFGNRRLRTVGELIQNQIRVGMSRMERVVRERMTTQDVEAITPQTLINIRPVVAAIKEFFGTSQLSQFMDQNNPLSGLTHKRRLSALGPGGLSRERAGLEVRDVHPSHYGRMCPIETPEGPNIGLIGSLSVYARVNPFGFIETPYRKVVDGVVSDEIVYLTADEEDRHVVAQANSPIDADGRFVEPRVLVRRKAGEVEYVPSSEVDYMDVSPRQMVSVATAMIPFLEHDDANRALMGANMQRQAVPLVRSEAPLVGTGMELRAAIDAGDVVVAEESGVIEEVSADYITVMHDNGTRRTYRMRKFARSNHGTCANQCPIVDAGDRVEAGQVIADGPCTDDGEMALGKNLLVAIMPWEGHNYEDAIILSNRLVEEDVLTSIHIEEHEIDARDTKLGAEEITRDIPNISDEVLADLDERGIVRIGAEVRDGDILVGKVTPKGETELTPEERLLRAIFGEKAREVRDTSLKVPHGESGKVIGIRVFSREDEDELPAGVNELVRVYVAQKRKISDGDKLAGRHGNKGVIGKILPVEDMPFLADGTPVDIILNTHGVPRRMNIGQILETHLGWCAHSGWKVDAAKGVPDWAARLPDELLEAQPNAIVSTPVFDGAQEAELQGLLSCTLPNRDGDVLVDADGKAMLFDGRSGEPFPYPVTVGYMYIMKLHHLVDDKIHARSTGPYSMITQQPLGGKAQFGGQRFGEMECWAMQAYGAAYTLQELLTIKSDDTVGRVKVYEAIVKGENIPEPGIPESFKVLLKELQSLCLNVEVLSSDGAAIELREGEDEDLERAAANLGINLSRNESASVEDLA

[2] = target: Mycobacterium tuberculosis RNA polymerase β' subunit (M. tuberculosis, UniProt P9WGY7); conditions: both partners purified
Sequence of Mycobacterium tuberculosis RNA polymerase β' subunit (P9WGY7 whole entry): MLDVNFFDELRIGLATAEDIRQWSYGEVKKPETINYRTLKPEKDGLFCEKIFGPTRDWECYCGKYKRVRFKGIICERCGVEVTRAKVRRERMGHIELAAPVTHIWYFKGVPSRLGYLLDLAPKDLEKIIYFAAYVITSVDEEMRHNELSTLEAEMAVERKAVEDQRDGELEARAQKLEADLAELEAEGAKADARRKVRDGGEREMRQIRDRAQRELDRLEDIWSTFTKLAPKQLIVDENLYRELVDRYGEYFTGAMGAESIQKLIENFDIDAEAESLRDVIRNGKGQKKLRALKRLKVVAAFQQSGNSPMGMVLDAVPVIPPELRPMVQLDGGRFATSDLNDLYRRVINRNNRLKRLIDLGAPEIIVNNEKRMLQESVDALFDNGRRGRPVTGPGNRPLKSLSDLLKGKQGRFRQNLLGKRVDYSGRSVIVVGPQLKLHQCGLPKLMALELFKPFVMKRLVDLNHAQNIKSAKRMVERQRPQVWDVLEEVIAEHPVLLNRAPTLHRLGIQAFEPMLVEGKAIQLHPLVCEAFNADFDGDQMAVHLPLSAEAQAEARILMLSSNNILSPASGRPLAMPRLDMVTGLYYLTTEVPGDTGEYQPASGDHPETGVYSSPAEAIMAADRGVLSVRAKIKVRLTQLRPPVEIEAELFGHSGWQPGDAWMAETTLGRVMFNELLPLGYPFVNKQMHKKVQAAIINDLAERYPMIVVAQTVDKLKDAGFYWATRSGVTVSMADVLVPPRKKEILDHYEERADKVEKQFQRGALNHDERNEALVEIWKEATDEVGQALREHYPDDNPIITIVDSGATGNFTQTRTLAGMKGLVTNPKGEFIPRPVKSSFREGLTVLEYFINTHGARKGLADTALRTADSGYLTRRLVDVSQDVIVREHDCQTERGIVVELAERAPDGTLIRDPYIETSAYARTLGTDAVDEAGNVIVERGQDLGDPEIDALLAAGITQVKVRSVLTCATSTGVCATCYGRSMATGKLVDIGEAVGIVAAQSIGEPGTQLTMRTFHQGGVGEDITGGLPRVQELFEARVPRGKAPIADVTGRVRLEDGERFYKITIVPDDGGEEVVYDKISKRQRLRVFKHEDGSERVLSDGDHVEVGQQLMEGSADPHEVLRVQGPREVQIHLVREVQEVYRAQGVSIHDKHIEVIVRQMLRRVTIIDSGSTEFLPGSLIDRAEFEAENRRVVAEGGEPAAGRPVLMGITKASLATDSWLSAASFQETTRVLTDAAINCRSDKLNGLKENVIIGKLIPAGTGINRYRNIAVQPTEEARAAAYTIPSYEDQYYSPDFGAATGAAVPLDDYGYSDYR

cryo-EM structure = target: the molecule itself

Measured: binding result

B1: Mycobacterium tuberculosis σ^B subunit (natural protein)
chain: MADAPTRATTSRVDSDLDAQSPAADLVRVYLNGIGKTALLNAAGEVELAKRIEAGLYAEHLLETRKRLGENRKRDLAAVVRDGEAARRHLLEANLRLVVSLAKRYTGRGMPLLDLIQEGNLGLIRAMEKFDYTKGFKFSTYATWWIRQAITRGMADQSRTIRLPVHLVEQVNKLARIKREMHQHLGREATDEELAAESGIPIDKINDLLEHSRDPVSLDMPVGSEEEAPLGDFIEDAEAMSAENAVIAELLHTDIRSVLATLDEREHQVIRLRFGLDDGQPRTLDQIGKLFGLSRERVRQIERDVMSKLRHGERADRLRSYAS
binds: all assays above

Source: publication PMC9886945 (Nature Communications, 2023)
